The experiment addresses T1, GST (UniProt P08515 1-218 = GST).
T1 construct: Control for GST-Smad4; also called GST protein
Nature of the experiment: peptide-Sepharose pull-down, anti-GST immunoblot. An excerpt:
To investigate whether phosphorylated Ser465 and Ser467 of Smad2 are directly involved in heteromeric interaction with Smad4, phosphorylated and non-phosphorylated peptides corresponding to the C-terminus of Smad2 were made and tested for their ability to bind GST-Smad4 fusion proteins. Short C-terminal peptide of Smad2 SSMS (SNp; SEQ ID NO: 3) or its phosphorylated counterpart (SPp), as well as long C-terminal-peptide […] (LNp; SEQ ID NO: 4) or its phosphorylated counterpart (LPp), coupled to CNBr-Sepharose (peptide beads), were incubated with GST or GST-Smad4 fusion protein. For competition large excesses (200 μM) of non-phosphorylated short (SNp) or long (LNp) peptides or their phosphorylated counterpart (SPp and LPp, respectively) were used (block). Proteins bound to the beads, were resolved by SDS-PAGE, transferred to nitrocellulose membrane and immunoblotted with anti-GST antibodies. Migration positions of GST and GST-Smad4 are shown by double arrows. Molecular masses of standard proteins are indicated on the left side on gel in which protein-stained GST and GST-Smad4 are shown. […] The phosphorylated long peptide also bound GST-Smad4 more efficiently, than the non-phosphorylated counterpart, however, a considerable binding was observed also to the long non-phosphorylated peptide.
Background: Immunoblotting shows a protein as a band on a membrane.

Where no end group is shown, it is not given here. [ ]: non-standard residue; d: D form. pS = N[C@@H](COP(=O)(O)O)C(=O)O

T1 sequence (P08515 whole entry): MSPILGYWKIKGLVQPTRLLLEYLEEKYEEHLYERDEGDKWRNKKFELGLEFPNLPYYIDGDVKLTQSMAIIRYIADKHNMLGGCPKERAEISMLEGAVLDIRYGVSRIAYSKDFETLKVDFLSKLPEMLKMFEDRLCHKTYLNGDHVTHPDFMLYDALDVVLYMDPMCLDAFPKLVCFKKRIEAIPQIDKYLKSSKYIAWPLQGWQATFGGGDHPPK

B1: short C-terminal peptide of Smad2 SSpMSp, doubly phosphorylated (peptide)
peptide: KKKS[pS]M[pS]
notes: The same phosphopeptide was the immunogen of the Smad2 phospho tail antibody; also called SPp
Turning to B1, the binding result is “no binding”.

For the origin of these results see patent publication US20020146774A1 (LUDWIG INSTITUTE FOR CANCER RESEARCH, published 2002).
